Experimental data: doi:10.1101/2020.02.05.923433 (bioRxiv, 2020)

Biological target: T1, purified RASSF1 RA domain (human, UniProt Q9NS23-2 124-288)
T1 sequence: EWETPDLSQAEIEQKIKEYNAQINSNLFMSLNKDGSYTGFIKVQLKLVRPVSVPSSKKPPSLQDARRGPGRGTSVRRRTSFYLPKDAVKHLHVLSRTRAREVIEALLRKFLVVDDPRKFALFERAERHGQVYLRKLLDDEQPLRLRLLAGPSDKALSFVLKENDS
Experiment: ITC

B1: GEM-GDP (purified GEM used for ITC) (domain or fragment)
chain: STDSVISSESGNTYYRVVLIGEQGVGKSTLANIFAGVHDSMDSDCEVLGEDTYERTLMVDGESATIILLDMWENKGENEWLHDHCMQVGDAYLIVYSITDRASFEKASELRIQLRRARQTEDIPIILVGNKSDLVRCREVSV
Kd: 9.6 µM
